From article PMC8300647, “Effects of Serine or Threonine in the Active Site of Typical 2-Cys Prx on Hyperoxidation Susceptibility and on Chaperone Activity” (Antioxidants, 2021)
Where a chain is given by its changes, count along the chain named. Names may count otherwise.

B1: AhpC from Pseudomonas aeruginosa (enzyme, UniProt Q9I6Z3 1-187, looked up)
chain: MSLINTQVQPFKVNAFHNGKFIEVTEESLKGKWSVLIFMPAAFTFNCPTEIEDAANNYGEFQKAGAEVYIVTTDTHFSHKVWHETSPAVGKAQFPLIGDPTHQLTNAFGVHIPEEGLALRGTFVINPEGVIKTVEIHSNEIARDVGETVRKLKAAQYTAAHPGEVCPAKWKEGEKTLAPSLDLVGKI
notes: The forward primer carries the ATG of the Nde I site followed by the gene's own ATG, so one more Met may precede the natural start; The strain that was amplified (ATCC29853) is not the strain of the genome used for the primers; also called PaAhpC; ahpc (Pa); source: E. coli BL21 (DE3), pET15b, purified (IMAC HisTrap, PD10 desalting)
B2: PaAhpC^T44S (enzyme)
chain: B1 chain with T44S
notes: AhpC of Pseudomonas aeruginosa with the catalytic triad Thr changed to Ser; printed as T44S in the SEC text and legend and as T43S in the primers' names and other legends (one mutant; mutagenic primer encodes AAFSFNC); Made by site directed mutagenesis (Quick Change II) of the pET15b-ahpc (Pa) plasmid; also called PaAhpC^T43S; source: E. coli BL21 (DE3), pET15b, purified (IMAC HisTrap, …)

Key:
[1] = target: the molecule itself; assay: SEC; reduced samples: 30 uM protein treated with 5 mM TCEP, excess removed by PD10; Phenomenex BioSep-SEC-S2000, 100 mM Tris-HCl pH 7.4, 1 mL/min, absorbance at 280 nm; self-association (decamer, dimer)
[2] = target: the molecule itself; assay: SEC; oxidized samples (disulfide): reduced 30 uM protein treated with 36 uM H2O2 for 30 min at room temperature; Phenomenex BioSep-SEC-S2000, 100 mM Tris-HCl pH 7.4, 1 mL/min, absorbance at 280 nm; self-association (decamer, dimer)

Protein | stoichiometry N [1] | stoichiometry N [2]
B1 | 10 | 2
B2 | 10 | 
